Values joined by “and” are separate entries in the source; they are usually repeats but may differ in a detail not shown here. Identical values can stand only once. Like-named read-outs stand apart in the source and are kept apart here. Bridge positions count the residues as written; N and C are the ends. Square brackets hold non-standard residues; d marks the D form. Primed or numbered codes have the meaning given here. Ends that are not written are not given here. * marks the point of attachment. Glu‑DTPA‑Gd = N-terminal Glu-DTPA-Gd chelate (gadolinium DTPA complex on glutamic acid); Gd^T″ = GdDTPA-thiourea; Cbz = O=C(OCc1ccccc1)*; Dap = NC[C@H](N)C(=O)O

Series [1] deals with perfused Langendorff rat heart. Kind of series: Equilibrium binding to perfused Langendorff rat heart. The procedure:
After deep anesthesia with pentobarbital (80 mg/kg ip), the chest cavity of a male Sprague Dawley rat (300 g) was opened, retracted and the heart was removed immediately and placed in an ice-cold normal Krebs-Henseleit (K-H) solution (NaCl, 118 mM; KCl, 4.7 mM; CaCl2, 2.5 mM; MgSO4, 1.2 mM; KH2PO4, 1.2 mM; NaHCO3, 25 mM; glucose, 5.5 mM). A K-H buffer filled 20 Gauge needle was inserted into the apex of the heart penetrating into the bottom of the chamber. This was attached to a pressure transducer used to record and monitor heart function. Perfusion pressure (˜60 mmHg) was monitored using a second transducer. The heart was perfused at a constant flow rate of 10-12 mL/min with 37° C. […]
Two peptide test articles, a high collagen binding peptide (SEQ ID NO: 144) and a low collagen binding peptide (SEQ ID NO: 173), are compared to GdDTPA. […] The amount of radioactivity added to the buffer solution was 1-5 μCi.
The heart was perfused for a period of 10 minutes and the perfusion solution was recycled through the heart. […] The heart was then weighed and the radioactivity in the heart measured with a Packard Cobra 5003 Gamma Scintillation counter. An aliquot of the K-H buffer was also weighed and counted. […]
The dual peptide gadolinium tetramer (Compound ID 803) was compared to GdDTPA. […] The amount of radioactivity added to the buffer solution was 1-5 μCi.

In series [2] the test system is perfused Langendorff rat heart. The series is described as follows: Washout kinetics from perfused Langendorff rat heart. Particulars: 10 minutes perfusion with buffer after infusion.
Series [3] in a line: Biodistribution analysis in rats (heart and blood, radiotracer). The class given is in vivo, Sprague-Dawley rats. The conditions noted are these: rat, 1 and 5 min post injection. The procedure: Concentration estimates were decay corrected. Studies were performed at least in duplicate.
The target in series [4] is T1, human type I collagen (Homo sapiens, UniProt P02452+P08123).
T1 construct: Acid soluble human collagen extracted from placenta; purchased Sigma C7774 (lot #083K375); host or cells: human placenta
The series is described as follows: MR phantom study: T1 of samples in human collagen gel. Particulars: in 7.5 μM human collagen gel; 10 μM Compound ID 1022; 0.47 Tesla, 37° C. The class given is physicochemical. The procedure: Acid soluble human collagen type I extracted from placenta (Sigma, cat #C7774, lot #083K375) was dissolved in 15 mM HCl (3.5 mg/mL) by vortexing and gently shaking for 3-4 hours at 4° C. The acid soluble collagen was dialyzed against PBS (pH 7.4). Protein concentration was determined by the BCA method (Pierce, Cat #23225) using bovine collagen (Vitrogen, cat #FXP-019) as a reference standard. The final collagen concentration for the stock solution was 9 μM.
(§1) Samples: • 1. […] Sample prepared as sample 2, but centrifuged to separate insoluble rat collagen gel • 5. Sample prepared as sample 3, but centrifuged to separate insoluble human collagen gel • 6. 27 μM GdDTPA solution in PBS, pH 7.4 • 7. 27 μM GdDTPA in a solution of 5.0 μM rat type I collagen in 10 mM phosphate buffer, pH 5 incubated at 37° C. overnight to form a gel • 8. Sample prepared as in sample 7, but centrifuged to separate insoluble rat collagen gel • 9. Homogeneous gel of 5 μM rat collagen • 10. Homogeneous gel of 7.5 μM human collagen
T1 was determined for samples 1, 2, 3, 6, 7, 9, 10 at 0.47 Tesla using a Bruker NMS120 minispec NMR analyzer operating at 37° C.

Series [5] concerns the target T2, rat type I collagen (Rattus norvegicus, UniProt P02454+P02466).
T2 construct: Rat collagen (acid soluble, type I, rat tail); purchased Upstate USA, Inc 08-115; host or cells: rat tail
Kind of series: MR phantom imaging of collagen gel samples at 4.7 T. The conditions noted are these: centrifuged samples 4 and 8, 4.7 T. The procedure:
as §1
Samples for imaging were placed in glass tubes that were in turn placed in tubes containing water. Images were acquired at 4.7 T on a Bruker Biospec Imager using a Multi-Slice Multi-Echo Method with variable Relaxation Delay (MSMEVTR) experiment. The spin echo time and the relaxation delay were set to TE=11.2 ms and TR=500 ms, respectively with a flip angle of 30°. Images were acquired of sample 2, sample 4, sample 7, and sample 8. […] Sample 7 and 8 show uniform signal intensity.

Series [6] concerns C57BL/6 mice.
The subject of series [7] is C57BL/6 mouse. Particulars: 25 μmol/kg i.v. bolus.
For series [8] the following is noted: 10 μmol/kg.
Series [9] relates to C57BL/6 mouse. Particulars: 7-day old infarction, 25 μmol/kg i.v. bolus.
Series [10] deals with T3, human collagen type I (acid soluble, extracted from placenta, Sigma C7774) (human, UniProt P02452 162-1218; P08123 80-1119).
T3 construct: gelled and dried as a fibril film in the assay; also called dried human collagen; h-Collagen
The series is described as follows: dried collagen assay. On the procedure: (§2) An additional 90 μL is reserved in a HPLC glass vial as a measure of the total concentration.

The target of series [11] is T4, rat collagen (acid soluble, type I, rat tail, Upstate 08-115) (rat, UniProt P02454 152-1207; P02466 86-1125).
T4 construct: also called dried rat collagen; insoluble rat collagen
The series is described as follows: dried collagen assay. The procedure: as §2

Series [12] deals with T3, human collagen type I (acid soluble, …). The series is described as follows: dried collagen assay. This is another data set of the same source.
The target in series [13] is T4, rat collagen (acid soluble, type I, rat …). Kind of series: dried collagen assay. This is another data set of the same source.
For series [14], the target named is T3, human collagen type I (acid soluble, …). The series is described as follows: dried collagen assay. The source holds these as a separate data set.
In series [15] the target is T4, rat collagen (acid soluble, type I, rat …). Kind of series: dried collagen assay. This is another data set of the same source.
Setting [16] is: 40 day old infarcts, 50 min post-injection, two animals, listed as Compound ID NO. 800.

T4 sequence (P02454 152-1207 limits assumed, chain 1 of 2): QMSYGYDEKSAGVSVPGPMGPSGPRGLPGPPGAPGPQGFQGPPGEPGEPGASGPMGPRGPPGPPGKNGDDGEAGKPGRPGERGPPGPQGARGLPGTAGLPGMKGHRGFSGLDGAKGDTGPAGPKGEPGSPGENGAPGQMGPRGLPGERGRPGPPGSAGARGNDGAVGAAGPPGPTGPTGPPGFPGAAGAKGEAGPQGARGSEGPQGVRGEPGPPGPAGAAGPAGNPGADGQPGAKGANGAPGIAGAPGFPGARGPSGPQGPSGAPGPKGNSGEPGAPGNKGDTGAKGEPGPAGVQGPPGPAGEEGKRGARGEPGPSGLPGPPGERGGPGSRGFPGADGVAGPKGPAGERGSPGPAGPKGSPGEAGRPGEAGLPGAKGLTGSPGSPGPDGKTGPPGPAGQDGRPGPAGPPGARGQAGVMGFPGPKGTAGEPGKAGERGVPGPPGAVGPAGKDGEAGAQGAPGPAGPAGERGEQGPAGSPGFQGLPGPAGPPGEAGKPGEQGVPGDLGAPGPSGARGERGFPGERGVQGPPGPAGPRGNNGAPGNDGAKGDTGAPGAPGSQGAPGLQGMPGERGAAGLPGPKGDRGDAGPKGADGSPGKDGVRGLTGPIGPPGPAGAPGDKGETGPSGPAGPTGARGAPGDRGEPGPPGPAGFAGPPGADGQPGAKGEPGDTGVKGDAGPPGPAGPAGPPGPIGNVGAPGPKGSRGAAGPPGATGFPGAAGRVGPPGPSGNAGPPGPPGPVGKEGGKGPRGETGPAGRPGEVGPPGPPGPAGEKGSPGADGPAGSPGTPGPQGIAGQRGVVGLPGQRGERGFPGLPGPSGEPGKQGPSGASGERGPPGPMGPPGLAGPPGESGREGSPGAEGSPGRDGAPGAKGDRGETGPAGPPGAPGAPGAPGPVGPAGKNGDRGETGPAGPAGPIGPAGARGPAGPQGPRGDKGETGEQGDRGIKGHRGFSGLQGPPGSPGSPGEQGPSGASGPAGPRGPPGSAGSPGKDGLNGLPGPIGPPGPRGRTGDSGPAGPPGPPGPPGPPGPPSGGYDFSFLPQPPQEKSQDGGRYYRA
T4 sequence (P02466 86-1125 limits assumed, chain 2 of 2): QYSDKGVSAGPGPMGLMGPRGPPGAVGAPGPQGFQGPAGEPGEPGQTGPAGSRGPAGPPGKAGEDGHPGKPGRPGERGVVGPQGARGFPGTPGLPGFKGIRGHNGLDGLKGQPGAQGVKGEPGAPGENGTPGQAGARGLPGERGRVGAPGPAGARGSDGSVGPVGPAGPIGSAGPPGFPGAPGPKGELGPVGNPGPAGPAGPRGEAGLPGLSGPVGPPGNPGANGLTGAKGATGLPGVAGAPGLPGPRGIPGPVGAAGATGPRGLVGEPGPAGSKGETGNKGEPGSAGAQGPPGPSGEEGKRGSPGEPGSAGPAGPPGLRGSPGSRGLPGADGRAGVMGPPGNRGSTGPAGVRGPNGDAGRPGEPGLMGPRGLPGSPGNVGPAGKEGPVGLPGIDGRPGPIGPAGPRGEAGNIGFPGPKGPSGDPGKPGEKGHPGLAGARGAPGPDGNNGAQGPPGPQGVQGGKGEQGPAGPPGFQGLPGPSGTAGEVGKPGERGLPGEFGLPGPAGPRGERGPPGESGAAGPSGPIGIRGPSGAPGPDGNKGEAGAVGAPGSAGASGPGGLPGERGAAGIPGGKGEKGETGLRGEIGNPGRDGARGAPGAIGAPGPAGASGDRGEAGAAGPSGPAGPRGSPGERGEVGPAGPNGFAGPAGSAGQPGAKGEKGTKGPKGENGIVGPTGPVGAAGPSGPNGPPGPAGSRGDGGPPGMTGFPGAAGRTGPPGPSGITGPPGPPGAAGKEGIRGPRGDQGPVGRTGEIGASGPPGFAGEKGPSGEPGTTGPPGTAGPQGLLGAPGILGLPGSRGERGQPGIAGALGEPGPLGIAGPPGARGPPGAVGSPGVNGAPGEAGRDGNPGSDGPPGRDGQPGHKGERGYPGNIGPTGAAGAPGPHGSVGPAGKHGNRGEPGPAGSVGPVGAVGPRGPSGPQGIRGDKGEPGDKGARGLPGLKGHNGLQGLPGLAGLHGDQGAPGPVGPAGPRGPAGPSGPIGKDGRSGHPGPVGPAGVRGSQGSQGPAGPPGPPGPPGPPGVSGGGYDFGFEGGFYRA
T3 sequence (P02452 162-1218 limits assumed, chain 1 of 2): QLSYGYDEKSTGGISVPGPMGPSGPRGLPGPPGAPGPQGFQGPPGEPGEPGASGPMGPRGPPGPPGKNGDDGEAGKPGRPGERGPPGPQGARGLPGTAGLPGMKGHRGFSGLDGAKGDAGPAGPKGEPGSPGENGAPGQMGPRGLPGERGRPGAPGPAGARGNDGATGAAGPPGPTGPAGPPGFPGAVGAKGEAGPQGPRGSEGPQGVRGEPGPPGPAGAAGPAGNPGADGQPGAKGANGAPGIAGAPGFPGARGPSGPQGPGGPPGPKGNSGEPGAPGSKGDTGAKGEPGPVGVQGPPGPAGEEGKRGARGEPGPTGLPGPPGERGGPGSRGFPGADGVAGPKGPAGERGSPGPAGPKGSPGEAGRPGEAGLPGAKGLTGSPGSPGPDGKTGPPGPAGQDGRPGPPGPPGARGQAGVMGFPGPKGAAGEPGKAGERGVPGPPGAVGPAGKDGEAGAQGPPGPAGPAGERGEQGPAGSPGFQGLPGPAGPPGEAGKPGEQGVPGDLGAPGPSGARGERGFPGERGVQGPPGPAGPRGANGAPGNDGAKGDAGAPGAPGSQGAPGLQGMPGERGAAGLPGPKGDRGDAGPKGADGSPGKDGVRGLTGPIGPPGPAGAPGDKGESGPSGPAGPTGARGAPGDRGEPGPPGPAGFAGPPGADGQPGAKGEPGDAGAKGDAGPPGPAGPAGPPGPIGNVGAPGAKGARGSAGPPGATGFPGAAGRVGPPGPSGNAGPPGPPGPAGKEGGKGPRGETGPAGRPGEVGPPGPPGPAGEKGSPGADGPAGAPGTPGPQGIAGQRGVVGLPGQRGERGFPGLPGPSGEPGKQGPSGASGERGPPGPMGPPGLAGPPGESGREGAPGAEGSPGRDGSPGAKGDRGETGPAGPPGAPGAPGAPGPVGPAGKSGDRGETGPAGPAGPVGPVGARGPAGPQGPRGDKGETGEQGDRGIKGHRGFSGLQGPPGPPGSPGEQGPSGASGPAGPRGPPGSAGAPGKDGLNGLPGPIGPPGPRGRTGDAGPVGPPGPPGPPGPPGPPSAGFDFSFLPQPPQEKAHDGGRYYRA
T3 sequence (P08123 80-1119 limits assumed, chain 2 of 2): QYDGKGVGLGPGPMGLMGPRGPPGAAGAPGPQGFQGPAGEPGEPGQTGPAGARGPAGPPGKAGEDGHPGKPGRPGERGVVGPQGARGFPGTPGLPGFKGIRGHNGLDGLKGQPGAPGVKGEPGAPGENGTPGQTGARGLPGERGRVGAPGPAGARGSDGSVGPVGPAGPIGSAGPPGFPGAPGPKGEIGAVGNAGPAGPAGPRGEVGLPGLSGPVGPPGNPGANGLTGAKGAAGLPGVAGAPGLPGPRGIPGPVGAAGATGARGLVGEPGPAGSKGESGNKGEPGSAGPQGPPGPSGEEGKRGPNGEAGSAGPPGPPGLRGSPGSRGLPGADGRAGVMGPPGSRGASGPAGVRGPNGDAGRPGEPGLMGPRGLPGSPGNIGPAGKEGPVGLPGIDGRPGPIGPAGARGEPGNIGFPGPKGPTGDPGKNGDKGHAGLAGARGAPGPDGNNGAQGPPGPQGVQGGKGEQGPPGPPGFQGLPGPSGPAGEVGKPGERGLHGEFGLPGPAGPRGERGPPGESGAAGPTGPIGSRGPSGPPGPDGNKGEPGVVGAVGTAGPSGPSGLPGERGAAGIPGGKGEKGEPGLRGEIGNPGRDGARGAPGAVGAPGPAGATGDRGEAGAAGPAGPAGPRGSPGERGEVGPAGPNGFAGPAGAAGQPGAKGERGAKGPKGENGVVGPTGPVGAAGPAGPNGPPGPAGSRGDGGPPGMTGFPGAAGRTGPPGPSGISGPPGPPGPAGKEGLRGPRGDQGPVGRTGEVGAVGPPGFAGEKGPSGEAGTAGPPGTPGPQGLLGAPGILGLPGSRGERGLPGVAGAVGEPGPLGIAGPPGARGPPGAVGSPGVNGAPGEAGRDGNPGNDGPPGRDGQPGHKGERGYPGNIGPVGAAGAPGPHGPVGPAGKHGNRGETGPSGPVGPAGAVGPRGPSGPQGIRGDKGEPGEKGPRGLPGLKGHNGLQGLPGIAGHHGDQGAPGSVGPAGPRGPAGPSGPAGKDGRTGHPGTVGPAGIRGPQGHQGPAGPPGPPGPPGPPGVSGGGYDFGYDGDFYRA
T2 sequence (P02454 152-1207 limits assumed): as the sequence (P02454 152-1207 limits assumed, chain 1 of 2) above
T2 sequence (P02466 86-1125 limits assumed): as the sequence (P02466 86-1125 limits assumed, chain 2 of 2) above
T1 sequence (P02452 162-1218 limits assumed): as the sequence (P02452 162-1218 limits assumed, chain 1 of 2) above
T1 sequence (P08123 80-1119 limits assumed): as the sequence (P08123 80-1119 limits assumed, chain 2 of 2) above

In the case of “Q W T C S G D A Y T W H C N Y E (GQWTCSGDAYTWHCNYE; disulfide 5-14 (inferred)) [SEQ ID NO: 144, -G- Linker at the N-terminus]”, the “heart uptake compared with GdDTPA” value in series [1] (perfused 10 minutes, recycled) is “about 10 times”. In addition, in series [2], the “percent of compound present at 0 minutes post infusion that remains at 10 minutes” value worked out at 68%. In addition, the “heart uptake relative to GdDTPA control” value in [3] is given as “positive uptake in the heart relative to the GdDTPA negative control”.

“Glu-DTPA-Gd-G.Q.W.H.C.T.T.R.F.P.H.H.Y.C.L.Y.G-PEG-H ({Glu‑DTPA‑Gd}-GQWHCTTRFPHHYCLYG; disulfide 5-14 (inferred); not fully specified (C-terminus)) [SEQ ID NO: 186]”: the “T1” value in [4] stood at 2.100 s. For the same molecule, the “signal of centrifuged collagen gel relative to supernatant” value in series [5] is recorded as “the pellet for sample 4 was much brighter than the supernatant”.

Consider `CC(C)C[C@H](NC(=O)[C@@H]1CSSC[C@H](NC(=O)[C@H](Cc2c[nH]cn2)NC(=O)[C@H](Cc2c[nH]c3ccccc23)NC(=O)[C@H](CCCCNC(=O)CNC(=S)Nc2ccc(C[C@@H](CN(CCN(CC(=O)O)CC(=O)O)CC(=O)O)N(CC(=O)O)CC(=O)O)cc2)NC(=O)CNC(=S)Nc2ccc(C[C@@H](CN(CCN(CC(=O)O)CC(=O)O)CC(=O)O)N(CC(=O)O)CC(=O)O)cc2)C(=O)N[C@@H]([C@@H](C)O)C(=O)N[C@@H]([C@@H](C)O)C(=O)N[C@@H](CCCCNC(=S)Nc2ccc(C[C@@H](CN(CCN(CC(=O)O)CC(=O)O)CC(=O)O)N(CC(=O)O)CC(=O)O)cc2)C(=O)N[C@@H](Cc2ccccc2)C(=O)N2CCC[C@H]2C(=O)N[C@@H](Cc2c[nH]cn2)C(=O)N[C@@H](Cc2c[nH]cn2)C(=O)N[C@@H](Cc2ccc(O)cc2)C(=O)N1)C(=O)N[C@@H](Cc1ccc(O)cc1)C(=O)N[C@@H](Cc1ccc(-c2ccccc2)cc1)C(N)=O` [Compound ID 800], for which the “MR enhancement of infarct zone versus viable myocardium” value in series [6] (7 day, 40 day or 210 day infarcts, 25 μmol/kg intravenous) is listed as “infarct zone as hyperintense relative to the normal, viable myocardium”. Besides, in series [6] (setting [16]), the “gadolinium concentration, blood” value was 27.8 nmol Gd/g and 14.6 nmol Gd/g; the “tissue gadolinium concentration, scar” value was 137 nmol Gd/g and 122 nmol Gd/g. Moreover, the “persistence of myocardial enhancement” value in series [7] is reported as “at least 1 hour”. Moreover, in series [7] (4.7-T), the “enhancement of the myocardium” value is recorded as “positive enhancement of the myocardium”. Also, the “retention of gadolinium in the heart” value in series [8] is at least 30 min. The “Gadolinium concentration in the heart” value in series [8] (1 minute post injection) is 23.9±7.8. Also, in series [9], the “enhancement of myocardium and infarcted zones” value is “positive enhancement of the myocardium and hyperenhancement of infarcted zones”; the persistence of enhancement entry is given as “at least 1 hour”.

Consider `O=C([O-])CN(CCN(CC(=O)[O-])CC(=O)O)CCN(CC(=O)[O-])CC(=O)O.[Gd+3]` [GdDTPA, gadolinium diethylenetriaminepentaacetate], for which, in [2], the “percent of compound present at 0 minutes post infusion that remains at 10 minutes” value was 0.5% and 2.2%. Moreover, in series [5], the “signal of centrifuged collagen gel relative to supernatant” value is “no increased concentration of GdDTPA in the gel relative to the supernatant”.

For the molecule “Q W T C S G D E Y T w H C N Y E (GQWTCSGDEYT[dW]HCNYE; disulfide 5-14 (inferred)) [SEQ ID NO: 173, -G- Linker at the N-terminus]”, in [1] (Buffer 3.0 μM), the “specific heart uptake” value is given as “no specific uptake”.

Turning to YSACYQAGCYIY (disulfide 4-9 (inferred)) [SEQ ID NO: 110], the “% bound” value in [10] came out at 10%; in [11], 2%.

In the case of YHACYQAGCWIY (disulfide 4-9 (inferred)) [SEQ ID NO: 106], the entries for the “% bound” value in series [10] and in series [11] were 9% and 24%, respectively.

On to YSACYQAGCWIW (disulfide 4-9 (inferred)) [SEQ ID NO: 109], for which the entries for the “% bound” value in series [10] and in series [11] were 21% and 37%, respectively.

Take GQWHCTTSFPHHYCLYG (not fully specified; Gd^T-GQWHCTTSFPHHYCLYG) [Comp ID 869]: the “% bound” value in [12] turned out to be 46%; in series [13], 37%.

On to GQWTCSGDEYTWHCNYE (disulfide 5-14 (inferred)) [SEQ ID NO: 122], for which the “% bound” value in series [14] and in [15] was 71% throughout.

Consider GQWTCSGDEYTWHCNY (disulfide 5-14 (inferred)) [SEQ ID NO: 123], for which the figures for the “% bound” value in [14] and in series [15] were 59% and 72%, respectively.

B1: Comp ID 939 (peptide)
peptide: Cbz-GQWHCT[Dap](Gd^T″)RFPHHYCLYG
modifications: disulfide 5-14; not fully specified (C-terminus); printed as cbz-GQWHCT-Dpr(Gd^T)-RFPHHYCLYG
Consider B1, for which the “% bound” value in series [12] amounted to 4%; in series [13], 5%.

Values taken from patent US20070293656A1, “COLLAGEN BINDING PEPTIDES” (Epix Pharmaceuticals, Inc., priority 2005, published 2007).
